In assay [1] the target is T1, cIL2Rg-Fc (lot#P210115SV5) (cynomolgus, UniProt A0A2K5VGJ6 23-262).
T1 construct: Named only by lot number; also called cynomolgus IL2Rg-Fc; not shown: Fc of the fusion protein
T1 sequence: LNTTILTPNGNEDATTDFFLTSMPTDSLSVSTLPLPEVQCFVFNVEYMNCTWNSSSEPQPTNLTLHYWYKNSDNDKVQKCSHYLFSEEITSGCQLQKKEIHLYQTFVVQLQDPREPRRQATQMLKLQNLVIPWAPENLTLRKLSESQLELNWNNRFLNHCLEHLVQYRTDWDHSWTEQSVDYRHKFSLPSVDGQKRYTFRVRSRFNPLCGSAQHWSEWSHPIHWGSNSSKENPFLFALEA
The assay can be described thus: SPR (Biacore T200); ratio experimental/calculated Rmax.

Assay [2] has as its target T2, hIL2Rg-Fc (SinoBiological cat#10555) (human, UniProt P31785 23-254, limits assumed).
T2 construct: Bought Fc fusion (SinoBiological cat#10555); P31785 is printed for hCD132 in the background; also called human IL2Rg-Fc; not shown: Fc of the bought fusion protein
T2 sequence (looked up): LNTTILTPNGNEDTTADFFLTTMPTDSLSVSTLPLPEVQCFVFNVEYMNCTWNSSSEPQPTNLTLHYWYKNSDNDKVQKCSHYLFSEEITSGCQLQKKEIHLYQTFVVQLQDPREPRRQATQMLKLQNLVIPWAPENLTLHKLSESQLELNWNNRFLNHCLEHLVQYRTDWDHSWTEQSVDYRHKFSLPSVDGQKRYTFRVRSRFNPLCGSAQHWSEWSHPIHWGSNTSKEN
The assay is described as above.

The target of assay [3] is T1, cIL2Rg-Fc (lot#P210115SV5). Kind of assay: SPR (Biacore T200), Fc-fused ligand captured on chip, dual VHH as analyte, 1:1 Langmuir fit. Here is the method:
(§1) All experiments were conducted in 10 mM Hepes, 150 mM NaCl, 0.05% (v/v) Polysorbate 20 (PS20) and 3 mM EDTA (HBS-EP+ buffer) on a Biacore T200 instrument equipped with Protein A or CAP biotin chips (Cytiva). For experiments on Protein A chips, Fc-fused ligands were flowed at 5 μl/min for variable time ranging from 18 to 300 seconds, reaching the capture loads listed in the tables below. Following ligand capture, injections of a 2-fold dilution series of analyte typically comprising at least five concentrations between 1 μM and 1 nM were performed in either high performance or single cycle kinetics mode. Surface regeneration was achieved by flowing 10 mM glycine-HCl, pH 1.5 (60 seconds, […]). Buffer-subtracted sensograms were processed with Biacore T200 Evaluation Software and globally fit with a 1:1 Langmuir binding model (bulk shift set to zero) to extract kinetics and affinity constants (kₐ, kd, KD). RMAX<100 RU indicates surface density compatible with kinetics analysis. Experiments on CAP chips were performed as described above with an additional capture step of Biotin CAPture reagent (10 seconds, 40 uL/min) performed prior to capture of biotinylated ligands. Calculated Rmax were generated using the equation Rmax=Load (RU) x valency of ligand x (Molecular weight of analyte/Molecular weight of ligand. Surface activity was defined as the ratio experimental/calculated Rmax. The results of these experiments are provided in below for sample information and experimental results.
A general note: SPR reads the build-up and loss of mass on a sensor chip optically.

The target of assay [4] is T2, hIL2Rg-Fc (SinoBiological cat#10555). The description is as above. Here is the method:
as §1

B1: DR471(DR241-DR231) (bispecific antibody)
chain: QVQLQESGGGSVQAGGSLRLSCAASGYSNCSYDMTWYRQAPGKEREFVSAIHSDGSTRYADSVKGRFFISQDNAKNTVYLQMNSLKPEDTAMYYCKTDPLHCRAHGGSWYSVRANYWGQGTQVTVSSGGGSQVQLQESGGGSVQAGGSLRLSCTASGFTFDDREMNWYRQAPGNECELVSTISSDGSTYYADSVKGRFTISQDNAKNTVYLQMDSVKPEDTAVYYCAADFMIAIQAPGAGCWGQGTQVTVSSASHHHHHH
notes: Anti-hIL10Ra/hIL2Rg dual VHH with ASH6 handle; also called G3
Take B1: the “Surface Activity” value in assay [1] was 1%; in assay [2], 5%. In addition, the Kd in assay [3] turned out to be 13.4 nM; in assay [4], 16.6 nM. Further, the koff worked out at 0.0048 s⁻¹ in assay [3] and 0.0057 s⁻¹ in assay [4]. Further, the kon in assay [3] amounted to 360000 M⁻¹ s⁻¹; in assay [4], 340000 M⁻¹ s⁻¹.

For orientation: Kd means the concentration at which binding is half-saturated. A low value points to higher affinity. For orientation: koff means a measure of how fast the partners let go of each other. Low readings indicate slow dissociation, high ones fast dissociation. One may read the kon as the second-order rate constant of association. Read a high kon as faster complex formation.

These data come from patent publication US20250163162A1 (SYNTHEKINE, published 2025).
